From the nanobody polyreactivity screen of Harvey et al. (2022)

Assay: yeast display, Sf9 membrane polyspecificity reagent, FACS + sequencing; frameworks hold sequencing errors
In short: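 Galactose induction of a Saccharomyces cerevisiae BJ5465 synthetic nanobody display library ran 36–48 hours. The cells were then stained for 1 hour at 4 °C with 10% biotinylated, detergent-solubilized Sf9 membrane reagent, pulled down on streptavidin microbeads and FACS-sorted into low and high (top ~1%) gates on expression and reagent-binding fluorescence. Labels for polyreactivity follow the gate of origin.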

Sequence | polyreactivity (PSR sort gate)
QVQLVESGGGLVQAGGSLRLSCAASGRIFDDNAMGWYRQAPGKERELVADINNGTSTNYADSVKGRFTISRDNAKNTVYLQMNSLKPEDTAVYYCAADDYIYYRILGDSFVYKAYGYWGQGTQVTVSS | low polyreactivity
QVQLVESGGGLVQAGGSLRLSCASSGSTFSYYDMGWYRQAPGKERELVAAISWNGGTTYYADSVKGRFTISRDNAKNTVYLQMNSLKPEDTAVYYCAATWDFYWAPYDSWGQGTQVSVSS | low polyreactivity
QVQLVESGGGLVQAGGSLRLSCAASGRTFPHYAMGWYRQAPGKERELVAAITSGGTTNYADSVKGRFTISRDNEKNTVYLQLNSLKPEDTAVYYCNADMDLDTAWDGFVAYDYWGQGTQVTVSS | low polyreactivity
QVQLVESGGGLVQAGGSLRLSCAASGRLFKSYAMGWYRQAPGKEREFVAAISTRSSSTYYADSVKGLFTISRDNAKNTVYLQMNSLKPEDTAVYYCAATPRRVSPYGVPYGDVYWGQGTQVTVSS | low polyreactivity
QVQLVESGGGLVQAGGSLRLSCAASGSIFAINAMGWDRQAPGKERELVAAITRGGSTYADSVKGRFTISRDNAKNTVYLQINSLKPEDTAVYYCAARWYRRGNGFNYWGQCTQVTVSS | high polyreactivity
QVQLVESGGGLVQAGGSLRLSCAASGSTFPYYTMGWYRQAPGKERELVAAITWRGGRTYYADSVKGRFTISRDNAKYTVYLQMNSLKPEDTAVYYCNAYGIDTGDYWGQGTQVTVSS | high polyreactivity
QVQLVESGGGLDQAGGSLRLSCAASGRIFSYYAMGWYRQAPGKERELVAVISRRGDNTYYADSVKGRFTISRDNAKKTVYFQMNSLKPEDTAVYYCAARFGYLTFYSSGYYWGQGTQVTVSS | high polyreactivity
QVQLVESGGGLVQAGGSLRLSCAASGLTYYTYAMGWYRQAPGKERELVAAITASGGRTYYADSVKGRFTISRDNAKNTVYLQMNSLKPEDTAVYYCAADIRGDTYDYWGQGTQVNVSS | high polyreactivity
QVQLVESGGGLVQAGGSLRLSCAASGSTYRPYAMGWYRQAPGKERELVAAITGSGGSTYYADSVKGRFTISRDNAKITDYLQMNSLKPEDTAVYYCNAVSTWRYYYWGQGTQVTVSS | high polyreactivity
QVQLVESGGGLVQAGGSLRISCAASGRIFHANAMGWYRQAPGKERELLAGISRNGGRTYYADSVKGRFTISRDNAKYTVYLQMNSLKPEDTAVYYCAADGLTGSKYRATGYYWGQGTQVTVSS | high polyreactivity
QVQRVESGGGLVQAGGSLRLSCAASGSIFSYNAMGWYRQAPGKERELVAAIRASGGDTYYADSVKGRFTISRDNAKNTVYLQMISLKPEDTAVYYCAARTYAHHYASHGYWGQGTQVTVSS | low polyreactivity
QVQLVESGGGLVQAGGSLRLSCAASGNIFDGYAMGWYRQAPGKERELVAAITSSAGSTYYADSVKGRFTISRDNAKNTVYLQMNSLKPEDTAVYYCNKVTKYRPIEGSWGQGTQVTVSS | high polyreactivity
QVQLVESGGGLVQAGGSLRLSCAASGSTFPGYAMGWYRQAPGKERELVAAGGSTYYADSVKGRFTISRDNAKNTVYLQMNSLKPEDTAVYYCAATWGSVQKGTYYYWGQGTQVTVSS | low polyreactivity
QVQLVESGGGLVPAGGSLRLSCAASGLTIYHYAMGWYRQAPGKERELVAAISYSGGSTYYADSVKGRFTISRDNAKNTVYLQMNSLKPEDTAVYYCAAYARHYGTSSLRYDYWGQGTQVTVSS | high polyreactivity
QVQLVESGVGLVQAGGSLRLSCAASGRTFRPYALGWYRQAPGNERELVAAIDSGGSTYADSVKGRFTISRDNAKTTVYLQMNSLKPEDTAVYYSAAVTQTAWLWYGYWGQGTQVTVSS | low polyreactivity
QVQLVESGGGLVQAGGSLRLRCAASGRIFGYYPMGWYRQAPGKERELDADITESGTSTYYADSVKGRFTISRDNAKNTVYLQMNSLKRVDTAVYYCAAGYWWRYALYGYWGQGTQVTVSS | low polyreactivity
QDQLVESGGGLVQAGGSLRLSCAASGLTFDRYTMGWYRQAPGKERELVAAITRGGGNTYYADSVKGRFTISRDNAKNTVYLQMNSLKPEDTAVYYCAANRRDGYDYWGQGTQVTVSS | low polyreactivity
QVQLVESGGGLVQAGGSLRLSCAASGSTFSPYAMGWYRQAPGKERELVAGISRGTSTNYADSVKGRFTISRDNAKNTVYLQMNSLKPVDTAVYYCAARAYHRYLPGYRVRFGDYYYWGQGTQVTVSS | high polyreactivity
QVQLVESGGGLVQAGGSLRLSCAASGRIISYNDMGWYRPAPGKERELVAAISWGGGSTYYADSVKGRFTISRDNAKNTVYLQMNSLKPEDTAVYYCSKGWYRIKRNDYWGQGTQVTVSS | low polyreactivity
QVQLVESGGGLVQAGGSLRLSCAASGLTFYYYAMGWYRQAPGKERQLVAAISRSGGSTYYADSVKGRFTISRDNAKNTVYLQMNSLKPEDTAVYYCAAREPYEGQRYYYEYYYWGQGTQVTVSS | high polyreactivity
QVQLQESGGGLVQAGGSPRLSCAASDNIFPDSVMCWSRQAPGKERELVATIGFGATTNYADSVKGRFTISRDNAKNTVYLQMNSLKPEDTAVYYCAADPLNYEYFCYWGQGTQVTVSS | low polyreactivity
QVQLVESGGGLVQAGGRLRLSCAASGFTFRYYAMGWYRQAPGKERELVAAISGSGVSTYYADSVKGRFTISRDNAKNTVYLQMNSLKPEDTAVYYCAAGYPGHYYKYDYWGQGTQVTVSS | high polyreactivity

Sequence | polyreactivity (PSR sort gate)
QVQLVESGGGLVQAGGSLRLSCAASGFIFDFYTMGWYRQATGKESELVAAITWSGDSTYYADSVKGRFTISRDNAKNTVYLQMNSLKPEDTAVYYCAADWWGVWYFDYDYWGQGTQVTVSS | low polyreactivity
QVQLVESGGGLVQAGGSLRLSCAASGRIFYSNAMGWYRQAPGKEREFVAAISWSGGGTYYADSVKGRFTISRDNAKNTVYLQMNSLKPEETAVYYCAAVFGYSWAFEYDYWGQGTQVTVSS | low polyreactivity
QVQLVESGGGLVQAGGSLRLSCAATGRIFYRYSMGWYRQAPGKERELVAAIRYSGGTTYADSVKGRFTISRDNAKNTVYLQMNSLKPEDTAVFYCAARASLWGGFESWGQGTQVTVSS | high polyreactivity
QVQLVESGGGLVQAGGSLRLSCAASGSIIPRNVMGWYRQAPGKERDLVAAISSSGGSTSYADSVKGRFTISRDNAKNTVYLQMNSLKPEDTAVYYCNAPWQRYSAPWGQGYNYWGQGTQVTVSS | high polyreactivity
QVQLVESGGGLVQAGGSLRLSCAASGRIFWGSAMGWFRQAPGKERELVAAITRSGGRTYYADSVKGRFTISRDNAKNTVYLQRNSLKPDDTPVYYCAAYYWYKWGYKYGYWGQGTQVTVST | high polyreactivity
QVQLVESGGGLVQAGGSHRLSCAASGFTFRRNAMGWYRQAPGKERELVAAISWSGGSTYYADSVKGRFTISRDNAKNTVYLQMNSLKPEDTAVYYCAAYDYRHLEDKYDYWGQGTQVTVSS | high polyreactivity
QVQLVESGGGLVQAGGSLRLSCAACGRTSSIYAMGWYRQAPGKERELVATITGGAVSTSYADSVKGRFTISRDNAKYTVYLQMNSLKPEDSAVYYCAADHWRYRSRPVNYWRQGTQVTVSS | high polyreactivity
QVQLVESGGGLVQAGGSLRLSCAASGIIFHIYAMGWYRQAPGTERELVAAISTGSSTYYADSVKGRFTISRDNAKNTVYLQMNSLKPEDTAVYYCNAVSRYLWVKGFDYWGQGTQVTVSS | low polyreactivity
QVQLVESGGGLVQAGGSLRLSCAASGRTFHKYAMGWYRQAPGKEWELVAAISNGGRTYYADSVKGRFTISRDNAKNTVYLQMNSLKPEDTAVYYCNADRTWKGRQYDYWGQGTQVTVSS | high polyreactivity
QVQLVESGGGLVQAGGSLRLSCAASGYIFDIYDMGWYRQATGKERELVAAITDYADSVKGRFTISRDNAKNTVYLQMNSLKPEDTAVYYCNVKFLVQPVTSVIGDYWGQGTQVTVSS | low polyreactivity
QVQLVESGGGLVQAGGSLRLSCAASGRTFYSYAMGWYRPAPGKERELVAAINTSGGRTHYADSVKGRFTISRDNGKNTVYLQMNSLKPEDTAVYYCAAEVFRTRTWEYYYWGQGTQVTVSS | high polyreactivity
QVQLGESGGGLVQAGGSRRFSSAASGSIVKAYAMGWYRPAPGKDRELVAAISTSDGSTYYADSVKGRFTISRDNAKNTVYLQMNSLKPEDTAVYYCATEYDYWDDSYDSWGQGTQVTVSS | low polyreactivity
QVQLVESVGGLVQAGGSLRLSCAASGSIFGYYAMGWYRQAPGKDRELVAGINWSGGSTYADSVKGRFTISRDNAKNTVYIQMNSLKPEDTAVYYCNRRYRKDSSAKYDYWGQGTQVTVSS | high polyreactivity
QVQLVESGGGLVQAGGSLRLSCAASGSTFKTYAMGWYRQAPGKEREFVASISTSGGSTYYADSVKGRFTISRDNAKNTVYLQMNSLKPEDTAVYYCAAKGRSYGVTRMYYWGQGTQVTVSS | high polyreactivity
QVQLVESGGALVQAGGSLRLSCAASGSIFIHYAMGWSRQAPGKERELVAAISRTGSTYYADSVKGRFTISRDNAKNTVYLQMNSLKPLDTAVYYCAKRISTRRYDFWGQGTQVTVSS | low polyreactivity
QVQLVESGGGLVQAGGSLRLSCAASGSIFFPYVMGWYRQAPGKERELVAAITYRAGSTYYADSVKGRFTISRDHAKNTFYLQMNSLKPEDTAVYYCNKEAAPLGFVTSYYGRDYWGQGTQVTVSS | low polyreactivity
QVQLVESGGGLVEEGGSLRLSCAASGSIFYRNDMGWYRQAPGKERELVAAISWSGGRTYYADSVKGRFTISRDNAKNTVYLQMNSLKPEDTAVYYCAAFRHRQSSDNGYDYWGQGTQVTVSS | high polyreactivity
QVQLEESGGGLVQAEGSLRLICAASGSTFVYAMGWYRQSPGKERELVAAISYSGGSTYYADSVKGRFTISRDNAKTTVYLQMNSLKPEDTAVYYCAAYLVISAQRYYYWGQGTQVTVSS | high polyreactivity
QVQLVESGGGLVQAGGSLRLSCAASGRIFDLYTMGWYRQAPGKERELVAAIRWSDGSTYYADSVKGRFTISRDNAKNTVYLQMNSLKPEDTAVYYCATDTAILINFVLYDYWGQGTQVTVSL | low polyreactivity
QVQLVESGGALVQAGGSLRLSCAASGSIFLFNTMGWYRQAPGKETELVAVISGGGITYYADSVKGRFTISRDNAKNTVYLQMNSLKPEDTAVYYCAADGGYWSQYDYWGQGTQVTVSS | low polyreactivity
QVQLVESGGGLVQAAGSLRLTCAASGRTFYDNVKGWYRQAPGKERELVAAISSGGSTNYADSVKGRFTISRDNAKNTVYLQMNSLKPEDTAVYYCATTGGGGWAYEYWGQGTQVTVSS | low polyreactivity
